This passage reports IC50 results from paper PMC3983144 (Bioconjugate chemistry, 2014).

Square brackets hold non-standard residues; d marks the D form. Nle = CCCC[C@H](N)C(=O)O

The target of this test is melanocortin 1 receptor (mouse (endogenous in B16F10), UniProt Q01727 1-315). Kind of test: radioligand binding.
Sequence of melanocortin 1 receptor (Q01727 whole entry, one chain of several): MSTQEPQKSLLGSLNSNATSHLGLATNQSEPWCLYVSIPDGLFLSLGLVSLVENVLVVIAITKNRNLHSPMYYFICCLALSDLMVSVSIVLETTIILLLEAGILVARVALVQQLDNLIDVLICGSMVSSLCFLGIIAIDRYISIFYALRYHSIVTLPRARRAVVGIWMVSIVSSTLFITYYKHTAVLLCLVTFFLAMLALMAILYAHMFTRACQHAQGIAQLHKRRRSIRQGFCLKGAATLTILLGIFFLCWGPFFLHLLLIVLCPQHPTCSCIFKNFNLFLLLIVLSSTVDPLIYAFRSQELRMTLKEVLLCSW

B1: Ac-Cys-Nle-Asp-His-D-Phe-Arg-Trp-Gly-Lys-NH2 (peptide)
chain: Ac-C[Nle]DH[dF]RWGK-NH2
SMILES: CCCC[C@H](NC(=O)[C@H](CS)NC(C)=O)C(=O)N[C@@H](CC(=O)O)C(=O)N[C@@H](Cc1c[nH]cn1)C(=O)N[C@H](Cc1ccccc1)C(=O)N[C@@H](CCCNC(=N)N)C(=O)N[C@@H](Cc1c[nH]c2ccccc12)C(=O)NCC(=O)N[C@@H](CCCCN)C(N)=O
The molecule B1 registered an IC50 of 2.19 ± 0.54 nM.

As a reminder, the IC50 is the concentration at which inhibition is half-maximal. A low value points to higher potency.
